# Assay results: US20110123676A1, “ENZYMATIC TREATMENT OF A PROTEINACEOUS SUBSTRATE BY ENZYMATIC REMOVAL OF FREE THIOLS” (priority 2008, published 2011)
# Entries after “also recorded” stand apart in the source; their conditions may differ.
# B1: TrTyr2: Tyrosinase (TrTyr2; VTT, Finland); tyrosinase 2 of Hypocrea jecorina, derived from SEQ ID NO 2 (protein, listed as Hypocrea jecorina)
# chain: MLLSASLSALALATVSLAQGTTHIPVTGVPVSPGAAVPLRQNINDLAKSGPQWDLYVQAMYNMSKMDSHDPYSFFQIAGIHGAPYIEYNKAGAKSGDGWLGYCPHGEDLFISWHRPYVLLFEQALVSVAKGIANSYPPSVRAKYQAAAASLRAPYWDWAADSSVPAVTVPQTLKINVPSGSSTKTVDYTNPLKTYYFPRMSLTGSYGEFTGGGNDHTVRCAASKQSYPATANSNLAARPYKSWIYDVLTNSQNFADFASTSGPGINVEQIHNAIHWDGACGSQFLAPDYSGFDPLFFMHHAQVDRMWAFWEAIMPSSPLFTASYKGQSRFNSKSGSTITPDSPLQPFYQANGKFHTSNTVKSIQGMGYSYQGIEYWQKSQAQIKSSVTTIINQLYGPNSGKKRNAPRDFLSDIVTDVENLIKTRYFAKISVNVTEVTVRPAEINVYVGGQKAGSLIVMKLPAEGTVNGGFTIDNPMQSILHGGLRNAVQAFTEDIEVEILSKDGQAIPLETVPSLSIDLEVANVTLPSALDQLPKYGQRSRHRAKAAQRGHRFAVPHIPPL
# modifications: signal peptide cleaved
# B2: TGase: TGase (Activa MP; Ajinomoto), well-known protein cross-linking enzyme used as positive reference (protein, UniProt P81453 77-407, looked up)
# Protein-glutamine …: DSDDRVTPPAEPLDRMPDPYRPSYGRAETVVNNYIRKWQQVYSHRDGRKQQMTEEQREWLSYGCVGVTWVNSGQYPTNRLAFASFDEDRFKNELKNGRPRSGETRAEFEGRVAKESFDEEKGFQRAREVASVMNRALENAHDESAYLDNLKKELANGNDALRNEDARSPFYSALRNTPSFKERNGGNHDPSRMKAVIYSKHFWSGQDRSSSADKRKYGDPDAFRPAPGTGLVDMSRDRNIPRSPTSPGEGFVNFDYGWFGAQTEADADKTVWTHGNHYHAPNGSLGAMHVYESKFRNWSEGYSDFDRGAYVITFIPKSWNTAPDKVKQGWP
# Key:
# [1] = test system: myosin; assay: SDS-PAGE analysis of protein cross-linking, pork extract; type: biochemical; conditions: for protein cross-linking (SDS-PAGE): treatment with the named enzyme alone, vs reference
# Protocol: (§1) Protein Extractions: • 1. Brine was made using 2% NaCl and 0.3% STPP • 2. 20 g portions of meat were placed in 250 ml baffled shake flasks • 3. 60 ml of brine were added to each shake flask. • 4. The shake flasks were placed on a rotary shaker (Certomat R, Braun Int.); 120 min at room temperature and 180 rpm • 5. The meat-brine suspension was centrifuged for 60 min at 10000 g and 5° C. • 6. The fat particles were removed by filtering the supernatant through a 0.8 mm grid • 7. The meat-protein extract (supernatant) was stored at −18° C. Dialysis was carried out in Slide-A-Lyzer Dialysis Cassette from Pierce (Order nr: 66810). The dialysis was carried out at 4° C. overnight with one shift of dialysis buffer. Sample Preparation/Enzyme Treatment for SDS-PAGE Analysis Enzyme treatment of the protein extracts prior to SDS-PAGE analysis was done as follows: Tyrosinase was added to a final concentration of 15.5 nkat/ml extract (corresponding to 0.015 mg tyrosinase per ml extract) and incubated for 60 min at 40° C. TGase was added to a final concentration of 2.5 nkat/ml extract (corresponding to 0.015 mg TGase pr. ml extract) and incubated for 60 min at 40° C. sulfhydryl oxidase was added to a final concentration of 0.0033 (low sulfhydryl oxidase) or 0.033 (high sulfhydryl oxidase) nkat/ml. It was always added prior to or simultaneously with other enzyme treatment. If added prior to other enzyme treatment, an incubation time of 60 min at room temperature was applied. SDS-Page Analysis: SDS-PAGE was carried out on Pre-cast Novex Bis-Tris gels (Invitrogen, Carlsbad Calif., USA) according to manufacturers' protocol. For non-reducing SDS-PAGE, DTT was left out of the sample buffer.
# [2] = test system: tyrosinase; assay: Tyrosinase spot assay and test of inhibition (skimmed milk); type: biochemical, Hypocrea jecorina; conditions: activity spot test, cysteine and enzyme in contact about 1 min before adding the substrate
# Protocol: Tyrosinase Spot Assay and Test of Inhibition Spot assay of tyrosinase activity was determined by adding 11 nkat of tyrosinase to 1 ml of skimmed milk. Red colour formation within 5-10 seconds is an indication of high of tyrosinase activity. To test for tyrosinase inhibition, either the inhibitor is mixed with tyrosinase before addition to the milk or the inhibitor is added to the milk prior to tyrosinase addition. The inhibitors tested were free cysteine at final concentrations of 1 or 0.1 mM or meat extracts diluted 10 times in the final sample.
# [3] = according to supplier; cited from earlier work
# [4] = test system: myosin; assay: SDS-PAGE analysis of protein cross-linking, lamb extract; type: biochemical; conditions: treatment with the named enzyme alone, vs reference
# Protocol: as §1, with “C.” for “C. Dialysis was carried out in Slide-A-Lyzer Dialysis Cassette from Pierce (Order nr: 66810). The dialysis was carried out at 4° C. overnight with one shift of dialysis buffer.”, “SDS-Page Analysis: SDS-PAGE was carried out on Pre-cast Novex Bis-Tris gels (Invitrogen, Carlsbad Calif., USA) according to manufacturers' protocol. For non-reducing SDS-PAGE, DTT was left out of the sample buffer.” left out
# [5] = test system: myosin; assay: SDS-PAGE analysis of protein cross-linking, cod extract; type: biochemical; conditions: treatment with the named enzyme alone, vs reference
# Protocol: as §1, with “C.” for “C. Dialysis was carried out in Slide-A-Lyzer Dialysis Cassette from Pierce (Order nr: 66810). The dialysis was carried out at 4° C. overnight with one shift of dialysis buffer.”, “SDS-Page Analysis: SDS-PAGE was carried out on Pre-cast Novex Bis-Tris gels (Invitrogen, Carlsbad Calif., USA) according to manufacturers' protocol. For non-reducing SDS-PAGE, DTT was left out of the sample buffer.” left out
# [6] = test system: myosin; assay: SDS-PAGE analysis of protein cross-linking, beef extract; type: biochemical; conditions: for protein cross-linking (SDS-PAGE): treatment with the named enzyme alone, vs reference
# Protocol: as §1, with “C.” for “C. Dialysis was carried out in Slide-A-Lyzer Dialysis Cassette from Pierce (Order nr: 66810). The dialysis was carried out at 4° C. overnight with one shift of dialysis buffer.”
# [7] = Tyrosinase activity (nkat); type: biochemical; conditions: enzyme used in the examples
# Protocol: One unit of tyrosinase activity—1 nkat is defined as the amount of enzyme that converts 1 nmol of L-DOPA into DOPA-quinone pr. second at pH 7 and 25° C.
# [8] = test system: myosin; assay: SDS-PAGE analysis of protein cross-linking, chicken extract; type: biochemical; conditions: treatment with the named enzyme alone, vs reference
# Protocol: as §1, with “C.” for “C. Dialysis was carried out in Slide-A-Lyzer Dialysis Cassette from Pierce (Order nr: 66810). The dialysis was carried out at 4° C. overnight with one shift of dialysis buffer.”, “SDS-Page Analysis: SDS-PAGE was carried out on Pre-cast Novex Bis-Tris gels (Invitrogen, Carlsbad Calif., USA) according to manufacturers' protocol. For non-reducing SDS-PAGE, DTT was left out of the sample buffer.” left out
# [9] = test system: myosin; assay: SDS-PAGE analysis of protein cross-linking, turkey extract; type: biochemical; conditions: treatment with the named enzyme alone, vs reference
# Protocol: as §1, with “C.” for “C. Dialysis was carried out in Slide-A-Lyzer Dialysis Cassette from Pierce (Order nr: 66810). The dialysis was carried out at 4° C. overnight with one shift of dialysis buffer.”, “SDS-Page Analysis: SDS-PAGE was carried out on Pre-cast Novex Bis-Tris gels (Invitrogen, Carlsbad Calif., USA) according to manufacturers' protocol. For non-reducing SDS-PAGE, DTT was left out of the sample buffer.” left out
# [10] = according to supplier; cited from earlier work; remark: listed apart in the source
Molecule,protein cross-linking (SDS-PAGE) [4],protein cross-linking (SDS-PAGE) ([1]; pork extract),protein cross-linking (SDS-PAGE) [5],protein cross-linking (SDS-PAGE) [6],protein cross-linking (SDS-PAGE) [8],protein cross-linking (SDS-PAGE) [9],other results
"O=P(O)(O)OP(=O)(O)OP(=O)(O)O [STPP, Sodium tripolyphosphate]",,,,,,,effect of removing STPP on tyrosinase cross-linking (SDS-PAGE) ([1]; pork extract dialysed against a solution free of STPP): no further efficiency of tyrosinase cross-linking was observed
N[C@@H](CS)C(=O)O [cysteine],,,,,,,cysteine concentration giving inhibition of the tyrosinase [2]: above 10 μM; cysteine concentration giving inhibition of the tyrosinase ([2]; listed as free cysteine): about 10 μM
[Cu] [copper],,,,,,,"effect of extra copper on tyrosinase activity ([1]; pork extract, results not shown): did not seem to enhance tyrosinase activity"
B1,varying degrees of myosin-band fading; also recorded: least extensive fading of the myosin band,no cross-linking seems to take place,the myosin band disappears entirely; also recorded: fading of the myosin band is most pronounced,indicating protein cross-linking,varying degrees of myosin-band fading; also recorded: least extensive fading of the myosin band,varying degrees of myosin-band fading,"tyrosinase activity [3]: 1067 nkat/ml; tyrosinase activity after dialysis of extract (SDS-PAGE) ([1]; pork extract dialysed against the same solution as used for extraction): rendered the tyrosinase active; tyrosinase activity after dilution of extract (SDS-PAGE) ([1]; ten times dilution of the pork extract prior to tyrosinase treatment, results not shown): rendered the enzyme active; tyrosinase cross-linking with or without sulfhydryl oxidase-treatment (SDS-PAGE) [6]: able to cross-link proteins; specific activity [7]: about 300 nkat/mg"
B2,efficient,efficient,efficient,efficient,efficient,efficient,TGase activity [10]: 1666 nkat/g
